# From patent US11255842B2, “Methods for detecting neutralizing antibodies to parathyroid hormone (PTH) and parathyroid hormone-related peptide (PTHRP) analog” (Radius Health, Inc., priority 2019, dated 2022)
# How the values were obtained:
# [1] = in vivo; cited from earlier work
# PTH1R [2] = biological target: T1, PTH1R (Rattus norvegicus, UniProt P25961); assay: PTH dose response, cAMP induction in UMR-106 cells in 25% pooled human serum; assay type: cell-based; settings: interpolated from curve fit, rounded
# T1 construct: any cells that express PTH1R and allows the induction of cAMP signaling; host or cells: UMR-106 rat osteosarcoma cells
# T1 sequence (P25961 27-591): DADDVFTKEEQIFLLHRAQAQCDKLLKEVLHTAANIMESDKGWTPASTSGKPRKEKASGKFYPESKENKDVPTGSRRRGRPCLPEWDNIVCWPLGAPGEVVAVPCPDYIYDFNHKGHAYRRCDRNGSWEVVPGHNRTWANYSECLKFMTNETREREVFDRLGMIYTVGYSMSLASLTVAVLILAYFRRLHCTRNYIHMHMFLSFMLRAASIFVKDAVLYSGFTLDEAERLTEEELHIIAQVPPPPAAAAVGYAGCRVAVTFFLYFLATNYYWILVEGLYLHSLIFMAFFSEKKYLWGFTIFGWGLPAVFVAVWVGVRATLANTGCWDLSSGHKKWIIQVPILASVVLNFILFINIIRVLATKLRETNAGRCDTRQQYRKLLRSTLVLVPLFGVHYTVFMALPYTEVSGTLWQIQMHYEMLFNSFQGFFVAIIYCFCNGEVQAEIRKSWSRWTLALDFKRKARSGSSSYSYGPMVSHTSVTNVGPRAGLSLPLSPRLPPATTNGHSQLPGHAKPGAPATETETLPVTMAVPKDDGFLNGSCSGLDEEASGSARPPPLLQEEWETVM
# Experimental: (§1) UMR-106 cells are maintained in growth medium (UMR-GM, Dulbecco's Modified Eagle's Medium (DMEM) containing 10% Fetal Bovine Serum, 1% Pen-Strep (10 k units Penicillin—10 k ug/mL Streptomycin) and 1% L-glutamine) in 75-150 cm^2 tissue culture flasks until ready for use. Cells are split at a ratio between 1:4 and 1:20 when growth reaches ≥70% confluence for routing culture maintenance. Prior to initiating an assay, cells are plated in sub-culturing flasks (25 cm^2 to 150 cm^2) at a density of 10^6 cells/5 cm^2 (example 5e6 cells for T-75). The following day, flasks are starved with assay medium (UMR-Am, Phenol Red-Free DMEM, containing 1% Bovine Serum Albumin). The following day validation samples and antibody controls are pre-incubated with PTH peptide for a minimum of 30 minutes. The validation samples and controls are adjusted such that the final assay concentration of serum is equal to the assay minimum required dilution of 1:4. Twenty microliters of samples and/or controls are placed on a MSD cAMP assay plate. […] Forty microliters of the cell suspension are added to the cAMP assay plate. […] One hundred microliters of 2×MSD Read Buffer T are then added to the plates and plates are read immediately on an MSD 6000 or 56000 Sector Imager. […]
# PTH1R [3] = biological target: T1, PTH1R; assay: PTHrP dose response, cAMP induction in UMR-106 cells; assay type: cell-based; settings: interpolated from curve fit, rounded
# Experimental: as §1, with “PTHrP” for “PTH peptide”, “S6000” for “56000”
substance,measurement,setting,value
Abaloparatide: parathyroid hormone-related peptide (PTHrP) (1-34) analog which acts as a PTH1 receptor (PTH1R) agonist,antibody-positive patients who developed neutralizing antibodies to Abaloparatide,[1],68%
same,patients who developed anti-Abaloparatide antibodies,[1],49%
same,patients who developed cross-reactivity to PTHrP,[1],2.3%
same,patients who developed cross-reactivity to parathyroid hormone (PTH),[1],0%
same,patients who developed neutralizing antibodies to PTHrP,[1],43%
"PTH: Parathyroid Hormone Peptide (1-34)(Human), Phoenix Pharmaceuticals P/N 055-08",EC20 of the PTH response,PTH1R [2],0.728 ng/mL
same,EC30 of the PTH response,PTH1R [2],0.436 ng/mL
"PTHrP: PTHrP (1-34)(Human, Rat, Mouse) peptide, Phoenix Pharmaceuticals P/N 056-04",EC20 of the PTHrP response,PTH1R [3],0.728 ng/mL
same,EC30 of the PTHrP response,PTH1R [3],0.436 ng/mL
